The target in test [1] is T1, mouse MIF treated with 0.2% Proclin300 (oxMIF surrogate) (Mus musculus, UniProt P34884, treated with 0.2% Proclin300 to transform MIF into an oxMIF surrogate).
T1 construct: mouse MIF; also called mouse oxMIF in solution; soluble mouse oxMIF; source: E. coli SHuffle T7 Express lysY, purified (DEAE flow-through, SP cation exchange, SEC or desalting)
The test can be described thus: ELISA; quantitative oxMIF ELISA: 15 nmol/L C0008, ON103 or ON203 as capture antibodies; human or mouse MIF in buffers with 0.2% Proclin300 as standard curves; EC50. The note with it: both partners purified. (An ELISA detects its analyte on a solid surface through an enzyme-linked reagent.)

Test [2] concerns the target T2, human MIF treated with 0.2% Proclin300 (oxMIF surrogate) (Homo sapiens, UniProt P14174, treated with 0.2% Proclin300 to transform MIF into an oxMIF surrogate).
T2 construct: human MIF; Same protein as m4, after treatment with Proclin300 (3 hours at room temperature for SPR); also called human oxMIF in solution; soluble human oxMIF; source: E. coli SHuffle T7 Express lysY, purified (DEAE flow-through, SP cation exchange, SEC or desalting)
The test can be described thus: SPR; Biacore 3000; antibodies amine-coupled to CM5 chips (about 2,500; 1,500; 1,000 RU); MIF at 42-666 nmol/L in HBS-EP with 0.2% Proclin300 (3 hours, room temperature), 30 uL/minute; Langmuir 1:1 model with mass transfer; mean of flow cells 2-4. The following applies: both partners purified. For orientation: In SPR one partner is held on a chip, and binding of the other changes the refractive index at the surface.

Changes are numbered by the printed parent chain. Numbers in names are those of the source.

T2 sequence (P14174 whole entry): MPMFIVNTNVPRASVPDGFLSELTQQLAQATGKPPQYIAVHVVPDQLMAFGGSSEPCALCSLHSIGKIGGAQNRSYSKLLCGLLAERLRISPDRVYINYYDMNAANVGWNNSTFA

B1: C0008 (antibody, V domains shown)
VH: EVQLLESGGGLVQPGGSLRLSCAASGFTFSIYSMNWVRQAPGKGLEWVSSIGSSGGTTYYADSVKGRFTISRDNSKNTLYLQMNSLRAEDTAVYYCAGSQWLYGMDVWGQGTTVTVSS
VL: DIQMTQSPSSLSASVGDRVTITCRSSQRIMTYLNWYQQKPGKAPKLLIFVASHSQSGVPSRFRGSGSETDFTLTISGLQPEDSATYYCQQSFWTPLTFGGGTKVEIK
notes: human IgG1 wt constant region; variable region shared with BaxB01 (PDB 6FOE); full-length light chain identical to that of imalumab; Human IgG1; also called imalumab; Bax69; source: ExpiCHO, transient expression, purified (Protein A MabSelect PrismA, HiTrap SP HP)
For B1, the binding result in test [1] and in test [2] was “binds” each time.

B2: ON103 (antibody, V domains shown)
VH: B1 VH with L5Q, W101Y
VL: B1 VL with M30L, F49Y, A51G, P80S, W93F
notes: heavy-chain variable domain of C0083: the VH of m1 with point mutations; heavy-chain constant region of an IgG1/IgG2 hybrid isotype with two point mutations (S239D/I332E) in the CH2 domain; light chain of C0083: as the light chain of m1 with point mutations in VL; Variable domains of C0083 on an IgG1/IgG2 hybrid constant region; also called second-generation anti-oxMIF mAb; lead candidate; …
For the molecule B2, the binding result in test [1] is given as “binds”.

B3: ON203 (antibody, V domains shown)
VH: B1 VH with L5Q, W101Y
VL: B1 VL with F49Y, A51G, W93F
notes: heavy-chain variable domain of C0090: the VH of m1 with point mutations; heavy-chain constant region of an IgG1/IgG2 hybrid isotype with two point mutations (S239D/I332E) in the CH2 domain; light chain of C0090: as the light chain of m1 with point mutations in VL; Variable domains of C0090 on an IgG1/IgG2 hybrid constant region; also called second-generation anti-oxMIF mAb; lead candidate; …
As to B3, the binding result in test [1] is “binds”.

For the origin of these results see article PMC10157364 (Molecular Cancer Therapeutics, 2023).
